For orientation: IC50 means the concentration that gives 50% inhibition.

Assay [1] addresses T1, human CD3 on human T cells (Jurkat) (human, UniProt P07766 23-207; P04234 22-171; P09693 23-182).
T1 construct: whole, on cells; also called huCD3+; cell surface CD3 on human (Jurkat) T cells
Nature of the assay: flow cytometry, Jurkat cells, 8 nM antibody. The source says: (§1) To express humanized Fabs in mammalian cells, VH genes (VH1 and VH2) and VL genes (VL1~VL10) shown in FIG. 2 were individually cloned into the pFUSE vector under the IL2 signal peptide sequence. Light and heavy chains expression vectors were used to co-transfect Expi293F cells according to manufacturer's protocol. On day 3 or 4, cultured media was harvested and secreted Fabs were purified by Protein G chromatography. Binding affinity of humanized candidates for human and cynomolgus T cells were evaluated by flow cytometry. Briefly, cells were incubated with humanized Fabs at 4° C. for 30 min and washed twice with staining buffer (1% BSA in PBS). […] After several washes, samples were acquired on a BD LSR II or BD Accuri C6 and analyzed using FlowJo 7.6.2 software.
A general note: In flow cytometry, cells or beads pass a laser one at a time.

In assay [2] the target is T1, human CD3 on human T cells (Jurkat). Briefly: flow cytometry, Jurkat cells, 40 nM antibody.
Text: as §1

The target is the same in assay [3]. Nature of the assay: flow cytometry, Jurkat cells, 0.32 nM antibody.
Text: as §1

Assay [4] shares this target. Nature of the assay: flow cytometry, Jurkat cells, 0 nM antibody (background).
Text: as §1

Assay [5] has the same target. Nature of the assay: flow cytometry, Jurkat cells, 1.6 nM antibody.
Text: as §1

Assay [6] has the same target. Briefly: flow cytometry titration on Jurkat cells.
Text: as §1

For assay [7] the target is unchanged. Briefly: flow cytometry, Jurkat cells, 200 nM antibody.
Text: as §1

For assay [8] the target is unchanged. Briefly: flow cytometry, Jurkat cells, 1000 nM antibody.
Text: as §1

T1 sequence (P07766 23-207, chain 1 of 3): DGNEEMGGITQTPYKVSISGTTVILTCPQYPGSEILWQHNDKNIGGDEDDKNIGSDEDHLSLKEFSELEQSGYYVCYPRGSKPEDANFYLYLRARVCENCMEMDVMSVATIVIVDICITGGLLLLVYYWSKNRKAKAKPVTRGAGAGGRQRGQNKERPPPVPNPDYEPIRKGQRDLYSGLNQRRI
T1 sequence (P04234 22-171, chain 2 of 3): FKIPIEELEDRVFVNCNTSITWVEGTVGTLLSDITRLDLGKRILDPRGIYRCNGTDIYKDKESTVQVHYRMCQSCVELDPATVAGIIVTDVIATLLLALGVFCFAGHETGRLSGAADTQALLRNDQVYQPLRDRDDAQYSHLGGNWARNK
T1 sequence (P09693 23-182, chain 3 of 3): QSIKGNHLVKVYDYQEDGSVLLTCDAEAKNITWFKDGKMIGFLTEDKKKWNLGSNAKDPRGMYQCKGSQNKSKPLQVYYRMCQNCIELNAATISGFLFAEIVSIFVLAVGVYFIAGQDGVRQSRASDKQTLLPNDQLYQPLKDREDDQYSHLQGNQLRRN

B1: HuL3H2 (Fab, V domains shown)
VH: EVQLVESGGGLVQPGGSLKLSCAASGFTFNTYAMNWVRQASGKGLEWVARIRSKYNNYATYYADSVKDRFTISRDDSKNTLYLQMNSLKTEDTAVYYCVRHGNFGNSYVSWFAYWGQGTLVTVSS
VL: QAVVTQEPSLTVSPGGTVTLTCGSSTGAVTTSNYANWVQQKPGQAFRGLIGGTNKRAPWTPARFSGSLLGGKAALTISGAQPEDEAEYYCALWYSNLWVFGGGTKLTVL
notes: Humanized Fab expressed in Expi293F; also called VL3 + VH2 humanized Fab
As for B1, the MFI in assay [1] is 610; in assay [2] it was 650; in assay [3], 600; in assay [4], 559; in assay [5], 610; in assay [7], 643. Also, in assay [8], the MFI is 666. This molecule displayed an IC50 in assay [6] of 17.7 nM.

B2: Murine anti-CD3 (antibody, V domains shown)
VH: EVQLVESGGGLVQPKGSLKLSCAASGFTFNTYAMNWVRQAPGKGLEWVARIRSKYNNYATYYADSVKDRFTISRDDSQSILYLQMNNLKTEDTAMYYCVRHGNFGNSYVSWFAYWGQGTLVTVSS
VL: QAVVTQESALTTSPGETVTLTCRSSTGAVTTSNYANWVQEKPDHLFTGLIGGTNKRAPGVPARFSGSLIGDKAALTITGAQTEDEAIYFCALWYSNLWVFGGGTKLTVL
notes: also called murine anti-CD3 VL/VH
As for B2, the MFI in assay [1] was determined as 28500; in assay [2], 41400; in assay [3], 3560; in assay [4], 1400; in assay [5], 10500; in assay [7] it was 50600. In assay [8], this molecule yielded an MFI of 54400. This molecule also had an IC50 in assay [6] of 7.73 nM.

B3: HuL1H1 (Fab, V domains shown)
VH: EVQLVESGGGLVQPGGSLKLSCAASGFTFNTYAMNWVRQASGKGLEWVGRIRSKYNNYATYYADSVKDRFTISRDDSKNTLYLQMNSLKTEDTAVYYCVRHGNFGNSYVSWFAYWGQGTLVTVSS
VL: QAVVTQEPSLTVSPGGTVTLTCGSSTGAVTTSNYANWFQQKPGQAPRTLIYGTNKRAPWTPARFSGSLLGGKAALTISGAQPEDEAEYYCALWYSNLWVFGGGTKLTVL
notes: Detected with anti-human kappa; also called VL1 + VH1 humanized Fab
Take B3: the MFI amounted to 1450 in assay [1]; 1450 in assay [2]; 1400 in assay [3]; 1400 in assay [4]; 1440 in assay [5]; 1460 in assay [7]. In assay [8], this molecule had an MFI of 1470.

B4: HuL4H2 (Fab, V domains shown)
VH: EVQLVESGGGLVQPGGSLKLSCAASGFTFNTYAMNWVRQASGKGLEWVARIRSKYNNYATYYADSVKDRFTISRDDSKNTLYLQMNSLKTEDTAVYYCVRHGNFGNSYVSWFAYWGQGTLVTVSS
VL: QAVVTQEPSLTVSPGGTVTLTCGSSTGAVTTSNYANWVQQKPGQAFRGLIYGTNKRAPWTPARFSGSLLGDKAALTISGAQPEDEAEYYCALWYSNLWVFGGGTKLTVL
notes: Humanized Fab expressed in Expi293F; also called VL4 + VH2 humanized Fab
B4: the MFI came to 620 in assay [1]; 620 in assay [2]; 599 in assay [3]; 559 in assay [4]; 615 in assay [5]; 620 in assay [7]. The same molecule yielded an MFI in assay [8] of 650.

B5: HuL7H2 (Fab, V domains shown)
VH: EVQLVESGGGLVQPGGSLKLSCAASGFTFNTYAMNWVRQASGKGLEWVARIRSKYNNYATYYADSVKDRFTISRDDSKNTLYLQMNSLKTEDTAVYYCVRHGNFGNSYVSWFAYWGQGTLVTVSS
VL: QAVVTQEPSLTVSPGGTVTLTCRSSTGAVTTSNYANWVQQKPGQAFRGLIGGTNKRAPGTPARFSGSLLGDKAALTISGAQPEDEAEYYCALWYSNLWVFGGGTKLTVL
notes: Humanized Fab expressed in Expi293F; also called VL7 + VH2 humanized Fab
As to B5, the MFI in assay [1] stood at 4240; in assay [2] it was 13600; in assay [3], 1570; in assay [4] it was 1250; in assay [5], 2040; in assay [7] it was 28900. This molecule also had an MFI in assay [8] of 35400. The concentration for half-maximal inhibition (IC50) in assay [6] was 70.4 nM.

B6: HuL9H2 (Fab, V domains shown)
VH: EVQLVESGGGLVQPGGSLKLSCAASGFTFNTYAMNWVRQASGKGLEWVARIRSKYNNYATYYADSVKDRFTISRDDSKNTLYLQMNSLKTEDTAVYYCVRHGNFGNSYVSWFAYWGQGTLVTVSS
VL: QAVVTQEPSLTVSPGGTVTLTCGSSTGAVTTSNYANWVQQKPGQAFRGLIGGTNKRAPGVPDRFSGSLLGGKAALTISGAQPEDEAEYYCALWYSNLWVFGGGTKLTVL
notes: Humanized Fab expressed in Expi293F; also called VL9 + VH2 humanized Fab
As to B6, the MFI in assay [1] was found to be 2760; in assay [2], 9950; in assay [3] it was 637; in assay [4], 559; in assay [5], 986; in assay [7] it was 27900. In assay [8], this molecule showed an MFI of 39400. Also, the IC50 in assay [6] worked out at 119 nM.

B7: HuL10H2 (Fab, V domains shown)
VH: EVQLVESGGGLVQPGGSLKLSCAASGFTFNTYAMNWVRQASGKGLEWVARIRSKYNNYATYYADSVKDRFTISRDDSKNTLYLQMNSLKTEDTAVYYCVRHGNFGNSYVSWFAYWGQGTLVTVSS
VL: QAVVTQEPSLTTSPGGTVTLTCRSSTGAVTTSNYANWVQQKPDHLFTGLIGGTNKRAPGVPARFSGSLIGDKAALTISGAQPEDEAEYYCALWYSNLWVFGGGTKLTVL
notes: Humanized Fab expressed in Expi293F; also called VL10 + VH2 humanized Fab
Take B7: the MFI is 3270 in assay [1]; 12700 in assay [2]; 688 in assay [3]; 559 in assay [4]; 1610 in assay [5]; 31300 in assay [7]. The MFI in assay [8] stood at 46300. This molecule gave an IC50 in assay [6] of 139 nM.

B8: HuL2H2 (Fab, V domains shown)
VH: EVQLVESGGGLVQPGGSLKLSCAASGFTFNTYAMNWVRQASGKGLEWVARIRSKYNNYATYYADSVKDRFTISRDDSKNTLYLQMNSLKTEDTAVYYCVRHGNFGNSYVSWFAYWGQGTLVTVSS
VL: QAVVTQEPSLTVSPGGTVTLTCGSSTGAVTTSNYANWVQQKPGQAFRGLIYGTNKRAPWTPARFSGSLLGGKAALTISGAQPEDEAEYYCALWYSNLWVFGGGTKLTVL
notes: Humanized Fab expressed in Expi293F; also called VL2 + VH2 humanized Fab
For the molecule B8, the MFI in assay [1] came out at 1450; in assay [2], 1450; in assay [3], 1400; in assay [4], 1400; in assay [5], 1440; in assay [7] it was 1460. In addition, the MFI in assay [8] came out at 1470.

B9: HuL8H2 (Fab, V domains shown)
VH: EVQLVESGGGLVQPGGSLKLSCAASGFTFNTYAMNWVRQASGKGLEWVARIRSKYNNYATYYADSVKDRFTISRDDSKNTLYLQMNSLKTEDTAVYYCVRHGNFGNSYVSWFAYWGQGTLVTVSS
VL: QAVVTQEPSLTVSPGGTVTLTCGSSTGAVTTSNYANWVQQKPDHLFRGLIGGTNKRAPGTPARFSGSLLGGKAALTISGAQPEDEAEYYCALWYSNLWVFGGGTKLTVL
notes: Humanized Fab expressed in Expi293F; also called VL8 + VH2 humanized Fab
B9: the MFI in assay [1] stood at 7670; in assay [2], 22000; in assay [3] it was 837; in assay [4] it was 559; in assay [5] it was 2120; in assay [7], 42000. This molecule came in with an MFI in assay [8] of 54600. This molecule also gave an IC50 in assay [6] of 78 nM.

B10: huL5H2 (heavy chain SEQ ID NO: 41 and light chain SEQ ID NO: 39) (Fab, V domains shown)
VH: EVQLVESGGGLVQPGGSLKLSCAASGFTFNTYAMNWVRQASGKGLEWVARIRSKYNNYATYYADSVKDRFTISRDDSKNTLYLQMNSLKTEDTAVYYCVRHGNFGNSYVSWFAYWGQGTLVTVSS
VL: QAVVTQEPSLTVSPGGTVTLTCRSSTGAVTTSNYANWVQQKPDHLFRGLIGGTNKRAPGTPARFSGSLLGDKAALTISGAQPEDEAEYYCALWYSNLWVFGGGTKLTVLK
notes: also called VL5 kappa + H2 Fab
Take B10: the MFI amounted to 31700 in assay [1]; 41600 in assay [2]; 4430 in assay [3]; 1400 in assay [4]; 13400 in assay [5]; 48000 in assay [7]. For the same molecule, in assay [8], the MFI was 51800. For the same molecule, inhibition in assay [6] was half-maximal at 4.46 nM (IC50).

B11: HuL6H2 (Fab, V domains shown)
VH: EVQLVESGGGLVQPGGSLKLSCAASGFTFNTYAMNWVRQASGKGLEWVARIRSKYNNYATYYADSVKDRFTISRDDSKNTLYLQMNSLKTEDTAVYYCVRHGNFGNSYVSWFAYWGQGTLVTVSS
VL: QAVVTQEPSLTVSPGGTVTLTCRSSTGAVTTSNYANWFQQKPDHLPRTLIYGTNKRAPGTPARFSGSLLGDKAALTISGAQPEDEAEYYCALWYSNLWVFGGGTKLTVL
notes: Humanized Fab expressed in Expi293F; also called VL6 + VH2 humanized Fab
Consider B11, for which the MFI was found to be 573 in assay [1]; 598 in assay [2]; 572 in assay [3]; 559 in assay [4]; 597 in assay [5]; 835 in assay [7]. This molecule returned an MFI in assay [8] of 2200. Moreover, the concentration for half-maximal inhibition (IC50) in assay [6] came out at 677 nM.

For the origin of these results see patent US12252534 (Scripps Research, dated 2025).
